Among the data in EP4772193A1 (Teijin Pharma Limited, dated 2026) are EC50 and Relative binding activity values, retold here.

Test [1] concerns the target T1, recombinant human soluble gpNMB (recombinant human gpNMB-FLAG-His) (human, UniProt Q14956 23-498).
T1 sequence: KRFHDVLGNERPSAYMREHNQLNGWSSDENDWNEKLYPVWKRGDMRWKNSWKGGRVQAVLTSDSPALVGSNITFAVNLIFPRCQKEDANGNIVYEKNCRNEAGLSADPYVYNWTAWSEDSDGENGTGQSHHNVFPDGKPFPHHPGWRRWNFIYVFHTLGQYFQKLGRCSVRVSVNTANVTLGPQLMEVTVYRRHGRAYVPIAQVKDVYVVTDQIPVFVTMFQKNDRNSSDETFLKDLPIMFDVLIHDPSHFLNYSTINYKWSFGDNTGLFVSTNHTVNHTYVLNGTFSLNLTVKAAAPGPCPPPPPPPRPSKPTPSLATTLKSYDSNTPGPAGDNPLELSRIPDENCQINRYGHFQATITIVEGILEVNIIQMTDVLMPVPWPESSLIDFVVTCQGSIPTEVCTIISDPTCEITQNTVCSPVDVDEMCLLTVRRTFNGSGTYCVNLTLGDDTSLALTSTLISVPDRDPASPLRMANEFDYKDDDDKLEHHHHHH
Briefly: antigen ELISA.

In test [2] the target is T1, recombinant human soluble gpNMB …. Briefly: antigen ELISA, vs hGPN18-2_H2L3.
The target is the same in test [3]. Briefly: antigen ELISA, vs hGPN18-2_H2L3. The source holds these as a separate data set.
Test [4] shares this target. The test is described as follows: antigen ELISA. The source holds these as a separate data set.

Like-named read-outs stand apart in the source and are kept apart here.

B1: hGPN18-2_H2L3 VH D111A (antibody, V domains shown)
VH: QVQLVQSGPGLVQPTQTLTLTCSFSGFSLSTSVMGVGWIRQPSGKGLEWLADIWWDDDKDYNPSLKSRLTISKDTSKNQVVLTMTNMDTVDTATYYCARTYYSNYEYYGMAYWGQGTLVTVSS
VL: DIVMTQSPDSLAVSLGERATINCRSSQTIILSNGNTYLEWYQQKPGQPPKLLIYKVSNRFSGVPDRFSGSGSGTDFTLTISSLQAEDVAVYYCFQGSHVPFTFGSGTKLEIKR
On to B1, for which, in test [1], the EC50 amounted to 11.3 nM. The Relative binding activity in test [2] worked out at 0.62.

B2: hGPN18-2_H2L3 VH V33A (antibody, V domains shown)
VH: QVQLVQSGPGLVQPTQTLTLTCSFSGFSLSTSAMGVGWIRQPSGKGLEWLADIWWDDDKDYNPSLKSRLTISKDTSKNQVVLTMTNMDTVDTATYYCARTYYSNYEYYGMDYWGQGTLVTVSS
VL: DIVMTQSPDSLAVSLGERATINCRSSQTIILSNGNTYLEWYQQKPGQPPKLLIYKVSNRFSGVPDRFSGSGSGTDFTLTISSLQAEDVAVYYCFQGSHVPFTFGSGTKLEIKR
For the molecule B2, the Relative binding activity in test [3] worked out at 0.55. Moreover, the EC50 in test [4] was 8.88 nM.

B3: hGPN18-2_H2L3 VH S28A (antibody, V domains shown)
VH: QVQLVQSGPGLVQPTQTLTLTCSFSGFALSTSVMGVGWIRQPSGKGLEWLADIWWDDDKDYNPSLKSRLTISKDTSKNQVVLTMTNMDTVDTATYYCARTYYSNYEYYGMDYWGQGTLVTVSS
VL: DIVMTQSPDSLAVSLGERATINCRSSQTIILSNGNTYLEWYQQKPGQPPKLLIYKVSNRFSGVPDRFSGSGSGTDFTLTISSLQAEDVAVYYCFQGSHVPFTFGSGTKLEIKR
Regarding B3, the Relative binding activity in test [3] turned out to be 0.88. Moreover, the EC50 in test [4] is 3.22 nM.

B4: hGPN18-2_H2L3 VH W54A (antibody, V domains shown)
VH: QVQLVQSGPGLVQPTQTLTLTCSFSGFSLSTSVMGVGWIRQPSGKGLEWLADIAWDDDKDYNPSLKSRLTISKDTSKNQVVLTMTNMDTVDTATYYCARTYYSNYEYYGMDYWGQGTLVTVSS
VL: DIVMTQSPDSLAVSLGERATINCRSSQTIILSNGNTYLEWYQQKPGQPPKLLIYKVSNRFSGVPDRFSGSGSGTDFTLTISSLQAEDVAVYYCFQGSHVPFTFGSGTKLEIKR
B4: in test [3], the Relative binding activity was 0.2. Besides, in test [4], the EC50 amounted to 38 nM.

B5: hGPN18-2_H2L3 VH L29A (antibody, V domains shown)
VH: QVQLVQSGPGLVQPTQTLTLTCSFSGFSASTSVMGVGWIRQPSGKGLEWLADIWWDDDKDYNPSLKSRLTISKDTSKNQVVLTMTNMDTVDTATYYCARTYYSNYEYYGMDYWGQGTLVTVSS
VL: DIVMTQSPDSLAVSLGERATINCRSSQTIILSNGNTYLEWYQQKPGQPPKLLIYKVSNRFSGVPDRFSGSGSGTDFTLTISSLQAEDVAVYYCFQGSHVPFTFGSGTKLEIKR
Consider B5, for which, in test [3], the Relative binding activity turned out to be 0.82. Also, in test [4], the EC50 came out at 4.41 nM.

B6: hGPN18-2_H2L3 VH K59A (antibody, V domains shown)
VH: QVQLVQSGPGLVQPTQTLTLTCSFSGFSLSTSVMGVGWIRQPSGKGLEWLADIWWDDDADYNPSLKSRLTISKDTSKNQVVLTMTNMDTVDTATYYCARTYYSNYEYYGMDYWGQGTLVTVSS
VL: DIVMTQSPDSLAVSLGERATINCRSSQTIILSNGNTYLEWYQQKPGQPPKLLIYKVSNRFSGVPDRFSGSGSGTDFTLTISSLQAEDVAVYYCFQGSHVPFTFGSGTKLEIKR
For B6, in test [3], the Relative binding activity was found to be 0.78. Moreover, the EC50 in test [4] was 4.42 nM.

B7: hGPN18-2_H2L3 VH S30A (antibody, V domains shown)
VH: QVQLVQSGPGLVQPTQTLTLTCSFSGFSLATSVMGVGWIRQPSGKGLEWLADIWWDDDKDYNPSLKSRLTISKDTSKNQVVLTMTNMDTVDTATYYCARTYYSNYEYYGMDYWGQGTLVTVSS
VL: DIVMTQSPDSLAVSLGERATINCRSSQTIILSNGNTYLEWYQQKPGQPPKLLIYKVSNRFSGVPDRFSGSGSGTDFTLTISSLQAEDVAVYYCFQGSHVPFTFGSGTKLEIKR
With B7, the Relative binding activity in test [3] stood at 0.97. In test [4], the EC50 turned out to be 6.6 nM.

B8: hGPN18-2_H2L3 VH G35A (antibody, V domains shown)
VH: QVQLVQSGPGLVQPTQTLTLTCSFSGFSLSTSVMAVGWIRQPSGKGLEWLADIWWDDDKDYNPSLKSRLTISKDTSKNQVVLTMTNMDTVDTATYYCARTYYSNYEYYGMDYWGQGTLVTVSS
VL: DIVMTQSPDSLAVSLGERATINCRSSQTIILSNGNTYLEWYQQKPGQPPKLLIYKVSNRFSGVPDRFSGSGSGTDFTLTISSLQAEDVAVYYCFQGSHVPFTFGSGTKLEIKR
With B8, in test [3], the Relative binding activity is 0.68. The EC50 in test [4] is 5.16 nM.

B9: hGPN18-2_H2L3 VH M34A (antibody, V domains shown)
VH: QVQLVQSGPGLVQPTQTLTLTCSFSGFSLSTSVAGVGWIRQPSGKGLEWLADIWWDDDKDYNPSLKSRLTISKDTSKNQVVLTMTNMDTVDTATYYCARTYYSNYEYYGMDYWGQGTLVTVSS
VL: DIVMTQSPDSLAVSLGERATINCRSSQTIILSNGNTYLEWYQQKPGQPPKLLIYKVSNRFSGVPDRFSGSGSGTDFTLTISSLQAEDVAVYYCFQGSHVPFTFGSGTKLEIKR
B9: in test [3], the Relative binding activity was 0.91. Further, the EC50 in test [4] was 3.58 nM.

B10: hGPN18-2_H2L3 VH S32A (antibody, V domains shown)
VH: QVQLVQSGPGLVQPTQTLTLTCSFSGFSLSTAVMGVGWIRQPSGKGLEWLADIWWDDDKDYNPSLKSRLTISKDTSKNQVVLTMTNMDTVDTATYYCARTYYSNYEYYGMDYWGQGTLVTVSS
VL: DIVMTQSPDSLAVSLGERATINCRSSQTIILSNGNTYLEWYQQKPGQPPKLLIYKVSNRFSGVPDRFSGSGSGTDFTLTISSLQAEDVAVYYCFQGSHVPFTFGSGTKLEIKR
Consider B10, for which the Relative binding activity in test [3] came out at 0.78. In addition, the EC50 in test [4] was determined as 4.31 nM.

B11: hGPN18-2_H2L3 VH E106A (antibody, V domains shown)
VH: QVQLVQSGPGLVQPTQTLTLTCSFSGFSLSTSVMGVGWIRQPSGKGLEWLADIWWDDDKDYNPSLKSRLTISKDTSKNQVVLTMTNMDTVDTATYYCARTYYSNYAYYGMDYWGQGTLVTVSS
VL: DIVMTQSPDSLAVSLGERATINCRSSQTIILSNGNTYLEWYQQKPGQPPKLLIYKVSNRFSGVPDRFSGSGSGTDFTLTISSLQAEDVAVYYCFQGSHVPFTFGSGTKLEIKR
In the case of B11, the EC50 in test [1] came out at 10.8 nM. Also, in test [2], the Relative binding activity was found to be 0.64.

B12: hGPN18-2_H2L3 VH V36A (antibody, V domains shown)
VH: QVQLVQSGPGLVQPTQTLTLTCSFSGFSLSTSVMGAGWIRQPSGKGLEWLADIWWDDDKDYNPSLKSRLTISKDTSKNQVVLTMTNMDTVDTATYYCARTYYSNYEYYGMDYWGQGTLVTVSS
VL: DIVMTQSPDSLAVSLGERATINCRSSQTIILSNGNTYLEWYQQKPGQPPKLLIYKVSNRFSGVPDRFSGSGSGTDFTLTISSLQAEDVAVYYCFQGSHVPFTFGSGTKLEIKR
In the case of B12, the Relative binding activity in test [3] amounted to 0.92. The EC50 in test [4] was found to be 3.43 nM.

B13: hGPN18-2_H2L3 VH I53A (antibody, V domains shown)
VH: QVQLVQSGPGLVQPTQTLTLTCSFSGFSLSTSVMGVGWIRQPSGKGLEWLADAWWDDDKDYNPSLKSRLTISKDTSKNQVVLTMTNMDTVDTATYYCARTYYSNYEYYGMDYWGQGTLVTVSS
VL: DIVMTQSPDSLAVSLGERATINCRSSQTIILSNGNTYLEWYQQKPGQPPKLLIYKVSNRFSGVPDRFSGSGSGTDFTLTISSLQAEDVAVYYCFQGSHVPFTFGSGTKLEIKR
In the case of B13, the Relative binding activity in test [3] came out at 0.6. Moreover, in test [4], the EC50 worked out at 6.94 nM.

B14: hGPN18-2_H2L3 VH W55A (antibody, V domains shown)
VH: QVQLVQSGPGLVQPTQTLTLTCSFSGFSLSTSVMGVGWIRQPSGKGLEWLADIWADDDKDYNPSLKSRLTISKDTSKNQVVLTMTNMDTVDTATYYCARTYYSNYEYYGMDYWGQGTLVTVSS
VL: DIVMTQSPDSLAVSLGERATINCRSSQTIILSNGNTYLEWYQQKPGQPPKLLIYKVSNRFSGVPDRFSGSGSGTDFTLTISSLQAEDVAVYYCFQGSHVPFTFGSGTKLEIKR
On to B14, for which, in test [3], the Relative binding activity was determined as 0.66. Further, the EC50 in test [4] is 8.36 nM.

B15: hGPN18-2_H2L3 VH T31A (antibody, V domains shown)
VH: QVQLVQSGPGLVQPTQTLTLTCSFSGFSLSASVMGVGWIRQPSGKGLEWLADIWWDDDKDYNPSLKSRLTISKDTSKNQVVLTMTNMDTVDTATYYCARTYYSNYEYYGMDYWGQGTLVTVSS
VL: DIVMTQSPDSLAVSLGERATINCRSSQTIILSNGNTYLEWYQQKPGQPPKLLIYKVSNRFSGVPDRFSGSGSGTDFTLTISSLQAEDVAVYYCFQGSHVPFTFGSGTKLEIKR
As to B15, the Relative binding activity in test [3] was found to be 0.97. Besides, the EC50 in test [4] came out at 3.12 nM.

B16: hGPN18-2_H2L3 VH G109A (antibody, V domains shown)
VH: QVQLVQSGPGLVQPTQTLTLTCSFSGFSLSTSVMGVGWIRQPSGKGLEWLADIWWDDDKDYNPSLKSRLTISKDTSKNQVVLTMTNMDTVDTATYYCARTYYSNYEYYAMDYWGQGTLVTVSS
VL: DIVMTQSPDSLAVSLGERATINCRSSQTIILSNGNTYLEWYQQKPGQPPKLLIYKVSNRFSGVPDRFSGSGSGTDFTLTISSLQAEDVAVYYCFQGSHVPFTFGSGTKLEIKR
Regarding B16, in test [1], the EC50 stood at 10.5 nM. Moreover, in test [2], the Relative binding activity came out at 0.61.

B17: hGPN18-2_H2L3 VH G37A (antibody, V domains shown)
VH: QVQLVQSGPGLVQPTQTLTLTCSFSGFSLSTSVMGVAWIRQPSGKGLEWLADIWWDDDKDYNPSLKSRLTISKDTSKNQVVLTMTNMDTVDTATYYCARTYYSNYEYYGMDYWGQGTLVTVSS
VL: DIVMTQSPDSLAVSLGERATINCRSSQTIILSNGNTYLEWYQQKPGQPPKLLIYKVSNRFSGVPDRFSGSGSGTDFTLTISSLQAEDVAVYYCFQGSHVPFTFGSGTKLEIKR
Regarding B17, the Relative binding activity in test [3] turned out to be 0.87. Moreover, the EC50 in test [4] stood at 3.32 nM.
